Experimental findings from paper PMC8368996, “Interactions between AMOT PPxY motifs and NEDD4L WW domains function in HIV-1 release” (The Journal of Biological Chemistry, 2021) are described below.

This test deals with full-length NEDD4L. Put plainly: FP binding of Alexa Fluor-tagged recombinant AMOT1-300 to full-length recombinant NEDD4L. How it is done:
A labeled peptide (GGG-ALEXA488) was added to AMOT1-300 (which carried a sortase tag) by transpeptidation with sortase. Typical reactions contained 10 to 50 μM AMOT1-300, 30 to 150 μM GGG-ALEXA488 peptide and 20 μM sortase enzyme in the reaction buffer (50 mM Tris [pH 7.5], 150 mM NaCl and 10 mM CaCl2). Reactions were allowed to proceed at either room temperature or 4 °C until the reaction was complete (typically 1–4 h). AMOT1-300–ALEXA488 was then purified by ion-exchange chromatography (SP HiTrap) as described above.
Each dilution series was performed at least in triplicate. […] The mean Kd values are reported as mean ± SEM.

B1: AMOT1-300: Alexa Fluor 488-tagged recombinant AMOT construct (residues 1–300) spanning all three PPxY motifs, labeled by sortase transpeptidation (protein)
chain: MRNSEEQPSGGTTVLQRLLQEQLRYGNPSENRSLLAIHQQATGNGPPFPSGSGNPGPQSDVLSPQDHHQQLVAHAARQEPQGQEIQSENLIMEKQLSPRMQNNEELPTYEEAKVQSQYFRGQQHASVGAAFYVTGVTNQKMRTEGRPSVQRLNPGKMHQDEGLRDLKQGHVRSLSERLMQMSLATSGVKAHPPVTSAPLSPPQPNDLYKNPTSSSEFYKAQGPLPNQHSLKGMEHRGPPPEYPFKGMPPQSVVCKPQEPGHFYSEHRLNQPGRTEGQLMRYQHPPEYGAARPAQDISLPL
modifications: GGG-ALEXA488 peptide added by transpeptidation with sortase; left off: His, end not stated, state not stated | sortase tag, end not stated, kept
notes: Alexa Fluor 488-tagged recombinant AMOT construct (residues 1–300) spanning all three PPxY motifs, labeled by sortase transpeptidation
On to B1, for which, where the note is “AMOT1-300-full-length NEDD4L vs PPxY1-WW3”, the “fold tighter binding than the isolated AMOT PPxY1-NEDD4L WW3 complex” value is given as 1.5 fold. Also, the “apparent dissociation constant, AMOT1-300 with full-length NEDD4L” value (Fig. 3C/E, FP, Alexa Fluor 488-tagged AMOT1-300, full isotherm not sampled because of limited solubility of full-length NEDD4L) worked out at 2.7 ± 0.8 µM.
